Laboratory results taken from paper doi:10.1101/2022.06.21.496973.

Key:
[1] = target: taxol-stabilized microtubules (co-sedimentation assays) (porcine) (UniProt P02550); assay: co-sedimentation
[2] = target: taxol-stabilized rhodamine-labeled, biotinylated microtubules stored overnight at 23°C or 37°C (damaged MTs) (porcine) (UniProt P02550); assay: TIRF microscopy of eGFP fluorescence on immobilised microtubules
[3] = target: 6XHis-Abl2 (murine Abl2, residues 74-1182) (murine) (UniProt Q4JIM5); assay: BLI
[4] = target: 6XHis-688-924 (Abl2 site I fragment) (murine) (UniProt Q4JIM5); assay: BLI
[5] = target: 6XHis-557-C (Abl2 C-terminal half) (murine) (UniProt Q4JIM5); assay: BLI
[6] = target: 6XHis-1024-1090 (Abl2 site II fragment) (murine) (UniProt Q4JIM5); assay: BLI

Row | Kd [1] [nM] | Kd [3] [nM] | Kd [4] [nM] | Kd [5] [nM] | Kd [6] [nM] | Substance | mean fluorescence intensity per µm on MTs stored at 23°C [2] [a.u.·µm^-1] | mean fluorescence intensity per µm on MTs stored at 37°C [2] [a.u.·µm^-1] | mean intensity on borders of damage, MTs stored at 23°C [2] [a.u.] | mean intensity on borders of damage, MTs stored at 37°C [2] [a.u.] | mean intensity on lattices, MTs stored at 23°C [2] [a.u.] | mean intensity on lattices, MTs stored at 37°C [2] [a.u.]
1 | 320 | – | – | – | – | Abl2-eGFP (from UniProt Q4JIM5 74-1182) (natural protein) | 0.91 | 0.71 | 0.39 | 0.38 | 0.3 | 0.28
2 | 400 | – | – | – | – | 6XHis-Abl2Δ688-790 (naturally occurring splice isoform) (from UniProt Q4JIM5 74-1182) (natural protein) | – | – | – | – | – | –
3 | – | 42 | 118 | 17 | 252 | porcine brain tubulin dimers (from UniProt P02550 1-451; Q767L7 1-444) (complex) | – | – | – | – | – | –
